Reference: paper PMC9477280 (PLoS Pathogens, 2022)

Assays:
[1] = biological target: T1, EPEC FliC (Escherichia coli EPEC, likely O127:H6 …, UniProt B7USU2); assay: ELISA; dilution ELISA; purified antigen coated directly on Nunc Maxisorp wells, typically 1 μg/mL in PBS overnight at 4°C, blocked with 4% milk in PBS 0.1% Tween; thioredoxin/VHH/E-tag from 125 nM in 1:5 serial dilutions, 1 h 37°C; detected with HRP anti-E-tag; EC50 estimates (apparent affinity); Trace = EC50 >125 nM, poor but detectable; conditions: both partners purified
T1 construct: also called EPEC rFliC; recombinant FliC

[2] = biological target: EPEC flagella (Escherichia coli O127:H6 E2348/69 (EPEC), UniProt B7USU2); assay: as above; conditions: both partners purified
Chain of EPEC flagella (B7USU2 2-548): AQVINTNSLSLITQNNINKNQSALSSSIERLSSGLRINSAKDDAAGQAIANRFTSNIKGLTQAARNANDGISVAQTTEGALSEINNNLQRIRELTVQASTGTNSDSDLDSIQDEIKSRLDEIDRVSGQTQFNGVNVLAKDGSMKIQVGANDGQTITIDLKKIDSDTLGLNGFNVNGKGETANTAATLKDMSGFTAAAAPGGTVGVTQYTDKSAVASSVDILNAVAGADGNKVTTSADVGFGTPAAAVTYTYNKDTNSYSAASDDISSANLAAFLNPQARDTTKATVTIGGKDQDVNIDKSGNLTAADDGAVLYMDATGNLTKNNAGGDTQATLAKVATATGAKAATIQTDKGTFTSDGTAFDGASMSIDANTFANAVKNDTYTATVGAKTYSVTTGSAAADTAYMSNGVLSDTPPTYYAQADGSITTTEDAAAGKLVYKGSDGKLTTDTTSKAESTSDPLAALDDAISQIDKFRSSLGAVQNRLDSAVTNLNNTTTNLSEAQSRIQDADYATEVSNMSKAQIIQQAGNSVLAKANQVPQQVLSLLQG

[3] = biological target: T2, MC1061 /EPEC intimin (Escherichia coli O127:H6, JPN15 …, UniProt P19809); assay: ELISA; dilution ELISA with intimin displayed on the surface of E. coli MC1061 as antigen; soluble thioredoxin/VHH/E-tag; EC50 estimates (apparent affinity); conditions: one partner purified
T2 construct: also called E. coli 1061/pInt (EPEC); EPEC intimin expressed on the surface of strain MC1061
T2 sequence (P19809 42-939): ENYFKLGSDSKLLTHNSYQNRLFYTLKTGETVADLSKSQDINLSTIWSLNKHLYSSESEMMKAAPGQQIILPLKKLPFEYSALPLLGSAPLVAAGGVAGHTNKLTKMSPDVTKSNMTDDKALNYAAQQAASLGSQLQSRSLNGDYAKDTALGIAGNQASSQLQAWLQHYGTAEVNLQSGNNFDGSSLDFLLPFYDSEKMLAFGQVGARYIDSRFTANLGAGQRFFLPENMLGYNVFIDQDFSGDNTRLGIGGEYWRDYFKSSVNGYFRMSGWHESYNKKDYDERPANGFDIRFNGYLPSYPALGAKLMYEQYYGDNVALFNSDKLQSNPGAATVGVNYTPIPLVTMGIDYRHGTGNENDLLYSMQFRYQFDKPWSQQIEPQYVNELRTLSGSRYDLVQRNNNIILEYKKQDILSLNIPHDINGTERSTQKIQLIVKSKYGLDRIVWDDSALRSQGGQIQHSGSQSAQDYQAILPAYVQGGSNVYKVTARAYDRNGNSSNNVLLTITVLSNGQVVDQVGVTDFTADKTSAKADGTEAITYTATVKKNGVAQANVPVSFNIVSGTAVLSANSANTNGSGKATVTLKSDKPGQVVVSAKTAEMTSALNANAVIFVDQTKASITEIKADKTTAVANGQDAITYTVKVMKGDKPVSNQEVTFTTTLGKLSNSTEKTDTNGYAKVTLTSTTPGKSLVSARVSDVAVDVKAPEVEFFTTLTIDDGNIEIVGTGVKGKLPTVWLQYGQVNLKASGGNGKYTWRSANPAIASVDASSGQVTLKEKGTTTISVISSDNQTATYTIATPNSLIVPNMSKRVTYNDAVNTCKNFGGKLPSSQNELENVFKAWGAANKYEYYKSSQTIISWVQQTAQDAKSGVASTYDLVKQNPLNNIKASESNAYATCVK

[4] = biological target: T3, MC1061 expressing EHEC intimin (Escherichia coli O157:H7 EDL933 (EHEC), UniProt P43261); assay: as above; conditions: one partner purified
T3 construct: also called E. coli 1061/pInt (EHEC); EHEC intimin expressed on the surface of strain MC1061
T3 sequence (P43261 40-934): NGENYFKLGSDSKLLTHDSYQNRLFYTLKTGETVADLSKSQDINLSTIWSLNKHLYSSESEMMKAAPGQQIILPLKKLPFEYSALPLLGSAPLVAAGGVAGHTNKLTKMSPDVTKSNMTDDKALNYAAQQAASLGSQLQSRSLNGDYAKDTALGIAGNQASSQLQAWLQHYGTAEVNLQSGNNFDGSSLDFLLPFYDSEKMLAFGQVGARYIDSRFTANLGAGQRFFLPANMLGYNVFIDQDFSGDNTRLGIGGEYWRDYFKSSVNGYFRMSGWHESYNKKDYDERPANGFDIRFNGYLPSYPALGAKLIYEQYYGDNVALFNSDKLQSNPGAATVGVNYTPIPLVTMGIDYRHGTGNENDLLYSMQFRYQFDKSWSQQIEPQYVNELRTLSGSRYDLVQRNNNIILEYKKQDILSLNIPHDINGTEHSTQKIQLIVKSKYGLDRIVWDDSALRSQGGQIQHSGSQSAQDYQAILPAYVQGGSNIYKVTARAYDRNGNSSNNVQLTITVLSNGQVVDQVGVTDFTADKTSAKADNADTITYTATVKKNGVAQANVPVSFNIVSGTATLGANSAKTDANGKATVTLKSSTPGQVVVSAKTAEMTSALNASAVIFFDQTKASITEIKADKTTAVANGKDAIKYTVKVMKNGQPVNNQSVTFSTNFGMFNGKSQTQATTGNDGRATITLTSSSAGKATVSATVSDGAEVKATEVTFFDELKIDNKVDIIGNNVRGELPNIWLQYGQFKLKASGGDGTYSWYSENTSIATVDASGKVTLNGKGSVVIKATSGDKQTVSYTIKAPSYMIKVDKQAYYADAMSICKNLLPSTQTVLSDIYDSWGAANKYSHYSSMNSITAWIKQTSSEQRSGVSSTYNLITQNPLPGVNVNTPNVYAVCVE

[5] = biological target: T4, EHEC intimin (Escherichia coli O157:H7 EDL933 (EHEC), UniProt P43261); assay: ELISA; dilution ELISA; purified antigen coated directly on Nunc Maxisorp wells, typically 1 μg/mL in PBS overnight at 4°C, blocked with 4% milk in PBS 0.1% Tween; thioredoxin/VHH/E-tag from 125 nM in 1:5 serial dilutions, 1 h 37°C; detected with HRP anti-E-tag; EC50 estimates (apparent affinity); Trace = EC50 >125 nM, poor but detectable; conditions: both partners purified
T4 construct: also called recombinant intimin (EHEC)
T4 sequence (P43261 40-934): as above

[6] = biological target: C. rodentium intimin (Citrobacter rodentium DBS100, UniProt Q07591); assay: ELISA; EC50 told in footnote g of Table 1; form of the C. rodentium intimin antigen not stated
Chain of C. rodentium intimin (Q07591 42-936): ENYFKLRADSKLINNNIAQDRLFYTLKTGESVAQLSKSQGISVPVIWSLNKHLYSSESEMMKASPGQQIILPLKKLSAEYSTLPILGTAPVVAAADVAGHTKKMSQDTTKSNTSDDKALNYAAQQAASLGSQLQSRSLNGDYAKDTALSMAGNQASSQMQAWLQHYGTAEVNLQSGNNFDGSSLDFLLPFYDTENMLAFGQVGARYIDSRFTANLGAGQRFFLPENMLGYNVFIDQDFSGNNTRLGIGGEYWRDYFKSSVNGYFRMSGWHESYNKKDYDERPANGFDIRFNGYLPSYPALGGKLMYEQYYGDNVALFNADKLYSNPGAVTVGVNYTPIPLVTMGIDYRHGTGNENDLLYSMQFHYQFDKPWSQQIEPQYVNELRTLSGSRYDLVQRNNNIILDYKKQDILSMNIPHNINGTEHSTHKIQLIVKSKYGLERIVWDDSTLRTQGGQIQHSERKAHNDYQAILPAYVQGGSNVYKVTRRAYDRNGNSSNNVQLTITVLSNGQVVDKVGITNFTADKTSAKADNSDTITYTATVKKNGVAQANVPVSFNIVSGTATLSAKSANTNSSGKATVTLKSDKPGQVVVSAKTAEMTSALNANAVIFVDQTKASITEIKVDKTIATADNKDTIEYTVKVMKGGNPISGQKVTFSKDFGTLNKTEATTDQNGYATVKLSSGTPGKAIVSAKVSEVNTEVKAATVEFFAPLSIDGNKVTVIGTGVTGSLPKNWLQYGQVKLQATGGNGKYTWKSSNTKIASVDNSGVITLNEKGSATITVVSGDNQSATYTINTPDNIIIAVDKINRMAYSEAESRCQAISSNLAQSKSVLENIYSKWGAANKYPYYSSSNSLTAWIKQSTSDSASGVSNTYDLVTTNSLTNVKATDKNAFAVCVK

[7] = biological target: T5, EPEC intimin (Escherichia coli O127:H6 E2348/69 (EPEC), UniProt P19809); assay: ELISA; dilution ELISA; purified antigen coated directly on Nunc Maxisorp wells, typically 1 μg/mL in PBS overnight at 4°C, blocked with 4% milk in PBS 0.1% Tween; thioredoxin/VHH/E-tag from 125 nM in 1:5 serial dilutions, 1 h 37°C; detected with HRP anti-E-tag; EC50 estimates (apparent affinity); Trace = EC50 >125 nM, poor but detectable; conditions: both partners purified
T5 construct: also called recombinant intimin (EPEC)
T5 sequence (P19809 42-939): as the sequence (P19809 42-939) above

| Binder | EC50 [3] [nM] | binding result [4] | binding result [5] | further results |
| --- | --- | --- | --- | --- |
| JUV-C4 (VHH, also called αFla-2; JVE-4 (vector name); not shown: thioredoxin, N-terminal, kept; E-tag, C-terminal, kept) VHH: TGGGLVQAGGSLTLSCVASGRAVSSFAMGWFRQIPGREQRDFVAFIGDYGLTTYYANSVKGRFTISRSNAENTLYLQMNSLEFEDAAVYFCAARDAYRSGTTNPSAYDYWGQGTQVTVSS | – | – | – | EC50 [1]: 0.3 nM; EC50 [2]: 1 nM |
| JWU-D8 (VHH, also called αInt-14; JWZ-9 (vector name)) VHH: TGGGLVQPGGSLRLSCAASGFYFSGYWMHWVRQVQGQGLKWVSGINIDDTKSSYTDSVKGRFTISRDNTKNTLYLQMDSLQPEDTGVYYCARDRRAGQISGGYDPDYRGQGTQVTVSS | 0.5 | binds | – | – |
| JWU-G8 (VHH, also called αInt-17; JWZ-15 (vector name)) VHH: SGGGLVQPGGSLRLSCATSGFYFAGYWMHWVRQVPGQGLEWVSGIDLGSTMLNYRDSVKGRFSISRDNAKNTVYLQMHSLKPEDTALYFCARDRRAGATSGGYDPDVRGQGTQVTVSS | 0.5 | binds | no binding (tested: 125 nM (highest VHH concentration)) | – |
| JXN-E2 (VHH, also called JXS-2 (vector name); not shown: thioredoxin, N-terminal, kept; E-tag, C-terminal, kept) VHH: TGGLVPPGGSLQLSCTSSGFFLDYLGVAWFRQAPGNEREGVSCIDYTGDNIAYASSMKGRATISRDKDANTVTLEMNGLKPEDTAVYYCAAHRSATTYADGKYRCPLENEYDYWGQGIQVTVSS | – | – | no binding (tested: 125 nM (highest VHH concentration)) | binding result [3]: no binding (tested: 125 nM (highest VHH concentration)); EC50 [6]: ~0.5 nM; binding result [7]: no binding (tested: 125 nM (highest VHH concentration)) |
